Assay results reported in paper PMC6031460 (Structure (London, England : 1993), 2018).
Values belong to the molecule of their own block, whether it stands above or below them.

How the values were obtained:
[1] = target: S. pombe Mis16 (S. pombe) (UniProt O94244); assay: ITC
[2] = target: Mis18 C-terminal helical domain (Mis18C) (S. pombe) (UniProt Q9P802); assay: AUC
[3] = target: Mis16-Eic1 heterodimer (S. pombe) (UniProt O94244); assay: AUC
[4] = target: Mis16-Eic1 heterodimer (S. pombe) (UniProt O94244); assay: AUC; remark: listed apart in the source
AUC = target: the molecule itself; assay: AUC
S. pombe Mis16 = target: T1, S. pombe Mis16 (S. pombe, UniProt O94244 1-430); assay: AUC
T1 sequence (looked up): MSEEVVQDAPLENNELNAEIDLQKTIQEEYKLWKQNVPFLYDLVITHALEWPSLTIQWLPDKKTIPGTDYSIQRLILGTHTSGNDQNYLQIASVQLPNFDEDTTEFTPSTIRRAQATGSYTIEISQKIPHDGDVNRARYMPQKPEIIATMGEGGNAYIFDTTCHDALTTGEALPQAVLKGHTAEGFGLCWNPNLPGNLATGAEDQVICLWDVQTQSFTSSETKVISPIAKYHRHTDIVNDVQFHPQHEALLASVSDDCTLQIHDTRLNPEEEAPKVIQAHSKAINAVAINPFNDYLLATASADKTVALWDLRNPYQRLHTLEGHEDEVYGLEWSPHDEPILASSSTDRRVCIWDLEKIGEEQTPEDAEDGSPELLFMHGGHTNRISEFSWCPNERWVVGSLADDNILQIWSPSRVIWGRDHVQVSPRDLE

Kd [1]: 20.8 nM
Molecule: Trx-Eic1-CT (wild-type) (from UniProt O42995 91-112) (domain or fragment)

stoichiometry N [2]: 2
stoichiometry N (Mis18C per Mis16-Eic1 heterodimer) [3]: 2
Molecule: Mis18 C-terminal helical domain (Mis18C) (from UniProt Q9P802 1-194) (domain or fragment)

stoichiometry N (MBP-Mis18C per Mis16-Eic1 heterodimer) [3]: 2
Molecule: Mis18C fused to maltose binding protein (MBP-Mis18C) (domain or fragment)

stoichiometry N (Mis18 per Mis16-Eic1 heterodimer) [4]: 2
B1: S. pombe Mis18 (natural protein, UniProt Q9P802 1-194, looked up)
chain: MSQTETSHSGYIDFKKESQPSVFQCKKCFQIVGDSNAWVISHREYLSFTLSDAVENSVRVEDTFKRSDDGLCVYSELSCTRCNEVIGKVYNSTPIYLDDIRDMYTFSMDKLQAYQLGNKTVNPEGLTRYQVDLEMREDIIKLKSFCLSLYEKFELHDETLRSVKETISSLKKPKIEGKEGKKEKARTYSKRTRK
stoichiometry N (AUC): 4

stoichiometry N (S. pombe Mis16): 1 Eic1 per Mis16
B2: S. pombe Eic1 (natural protein, UniProt O42995 1-112, looked up)
chain: MDLMPLEKARAIEIAFDNVFHNTKIPDNLQQFDAILKRLERRRFIPTENQKPRVYETELLVLRFREFGVKDNHNHPINLHSLRSKSLIRAQGKKLDLHNRVFLRRNVRAVKM
